We go through 7 molecules from patent US20150351390A1, “COMPOSITIONS AND METHODS FOR AUXIN-ANALOG CONJUGATION” (PIONEER HI-BRED INTERNATIONAL, INC., priority 2012, published 2015).

Data set [1] in a line: LC-MS assay of GH3 conjugation of 2,4-D with Asp or Glu. Type of data set: biochemical. The conditions noted are these: 5 mM 2,4-D substrate; for kcat (hrs−1) 2,4-D-Asp: conjugation of 2,4-D with Asp by recombinant GH3 protein, 2,4-D-Asp product by LC-MS; for kcat (hrs−1) 2,4-D-Glu: conjugation of 2,4-D with Glu by recombinant GH3 protein, 2,4-D-Glu product by LC-MS. In a few lines:
(§1)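 N-terminal His-tagged GH3 homologs, expressed in E. coli C41(DE3) and Ni-NTA purified, at 44 to 164 μg/mL incubated 3 h at 30 °C in 20 mM Tris-HCl pH 8.0, 5 mM MgCl2, 1 mM DTT, 5 mM ATP, 5 mM auxin (IAA, 2,4-D or dicamba) and 5 mM Asp or Glu. Conjugates quantified by LC-MS against standards after MeOH precipitation; kinetics from Michaelis-Menten fits of initial velocities.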

A short description of data set [2]: LC-MS assay of GH3 conjugation of IAA with Asp or Glu. Type of data set: biochemical. To be noted: for kcat (hrs−1) IAA-Asp: conjugation of IAA with Asp by recombinant GH3 protein, IAA-Asp product by LC-MS; for kcat (hrs−1) IAA-Glu: conjugation of IAA with Glu by recombinant GH3 protein, IAA-Glu product by LC-MS. In a few lines: as §1

B1: ZmACL52529: GH3 protein, accession ACL52529 (protein)
chain: MSTSHARVKSDSNNGRTRTCDDGGSSGTSGGERKLMPAIADEMDRRSLLYSLLMPVMSQAVPGLDRGRCMYLYFVKAESRTPGGHPARPVLTSFYRSRHFLERPHDPYTVHTSPDEAVLCVDAYQSMYAQLLCGLVHRADVLRVGAVFASGFLRAIRFLEKHWQRLCRDLRRGALGAEVTDRSVRAAVARVLRADPALADAVEAECARPSWQGIIRRVWPGTKYIDVIVTGAMAQYIPTLEFYGGGLPLTCTMYASSESYFGINLNPMCKPSEVAYTLIPTMCYFEFLPLPQPGPGGTDDADPDHRDLVDLVDVKLGHEYELVVTTYSGLYRYRVGDVLRVAGFKNQAPMFKFLRRKNVVLSIDSDKTDEAELHAAVSGAVQHLAPFGASLVEYTSYADAGTIPGHYVLFWELRLRAGDVPVPVPASVFEDCCLAVEEALNSVYRQGRAADRSIGPLEIRVVSDGTFDRLMDYALARGASINQYKVPRCVHPGPVVELLDGRVQASYVSPKCPKWSPGGGKQWSSDAAAKKPAAAAGSNNGGGAVVA
modifications: Zea mays
As to B1, in data set [1], the “kcat (hrs−1) 2,4-D-Asp” value amounted to 0.000 h⁻¹ and the “kcat (hrs−1) 2,4-D-Glu” value came out at 0.000 h⁻¹. In data set [2], the “kcat (hrs−1) IAA-Asp” value amounted to 0.000 h⁻¹ and the “kcat (hrs−1) IAA-Glu” value amounted to 2.149 h⁻¹.

B2: SbEES01578: GH3 protein, accession EES01578 (protein)
chain: MPEAPTTKTTLPAGGFGPGAHREALEFIEHVTANAGKVQRRVLAEILTQNAPAEYLRRYGVPGGSADAVEAFRRVVPLVTYEGLQPDILRIASGDTSPILSGKPISEFLTSSGTSGGERKLMPTIADELDRRSLLYSLQMPVMSQSVPGLDKGKAMYLLFVKAESRTPGGLVARPVLTSYYRSRQFLERPHDPYTEYTSPNEAILCVDSYQSMYTQLLCGLVHRADVLRVGAVFASGFLRAVRFLEKHWPRLCRDIRTGTLDPEITDRAVRDAVVGRVLRGANPALADEIEAECAGPSWEGIIRRLWPRTKYIDVIVTGAMSQYIPTLEFYGGGLPLACTMYASSECYFGLNLKPMCKPGDVAYTLIPTMCYFEFLPLQCSDGKAEPSHRDLVGLVDVKLGHEYELVVTTYSGLYRYRVGDVLRVAGFKNEAPMFKFIRRQNVALSIDSDKTDETELHAAVSGAVQHLAPFGASLVEYTSYADAATIPGHYVLFWELRAGSTAVPASVFEDCCLSVEEALNSVYRQCRACDKSIGPLEIRVVSEGTFDKLMDYAISRGASINQYKAPRCVRPGPVVELLDARVQAKYFSPKCPKWSPGNKQWNAASNGDA
modifications: Sorghum bicolor
With B2, in data set [1], the “kcat (hrs−1) 2,4-D-Asp” value worked out at 0.765 h⁻¹ and the “kcat (hrs−1) 2,4-D-Glu” value is 0.250 h⁻¹. Moreover, in data set [2], the “kcat (hrs−1) IAA-Asp” value is 4419.692 h⁻¹ and the “kcat (hrs−1) IAA-Glu” value was determined as 162.572 h⁻¹.

B3: ZmACL54563: GH3 protein, accession ACL54563 (protein)
chain: MPEAPVVTMRDTAAAAPPATHRDLLEYIERVTAGAAQVQRRVLSEILAQNAPAEYLRRLGVSGAAPGAVEAFRRAAPLVTYEDILPDVLRIANGDTSPILSGKPIREFLTSSGTSGGERKLMPAIADEMDRRSLLYSLLMPVMSQAVPGLDRGRCMYLYFVKAGSRTPGGHPARPVLTSFYRSRHFLERPHDPYTVHTSPDEAVLCVDAYQSMYAQLLCGLVHRADVLRVGAVFASGFLRAIRFLEKHWQRLCRDLRRGALGAEVTDRSVRAAVARVLRADPALADAVEAECARPSWQGIIRRVWPGTKYIDVIVTGAMAQYIPTLEFYGGGLPLTCTMYASSESYFGINLNPMCKPSEVAYTLIPTMCYFEFLPLPQPGPGGTDDADPDHRDLVDLVDVKLGHEYELVVTTYSGLYRYRVGDVLRVAGFKNQAPMFKFLRRKNVVLSIDSDKTDEAELHAAVSGAVQHLAPFGASLVEYTSYADAGTIPGHYVLFWELRLRAGDVPVPVPASVFEDCCLAVEEALNSVYRQGRAADRSIGPLEIRVVSDGTFDRLMDYALARGASINQYKVPRCVHPGPVVELLDGRVQASYVSPKCPKWSPGGGKQWSSDAAAKKPAAAAGSNNGGGAVVA
modifications: Zea mays
For the molecule B3, in data set [1], the “kcat (hrs−1) 2,4-D-Asp” value turned out to be 3.255 h⁻¹ and the “kcat (hrs−1) 2,4-D-Glu” value is 0.993 h⁻¹. In data set [2], the “kcat (hrs−1) IAA-Asp” value turned out to be 522.629 h⁻¹ and the “kcat (hrs−1) IAA-Glu” value worked out at 26.015 h⁻¹.

B4: ZmACI46149: GH3 protein, accession ACI46149 (protein)
chain: MAVMAEVVSTTGAALRSPASQQPAAAGAAKGTDAEKLQFIEDMTSNVDAVQERVLGEILARNADTEYLAGRCGLAGATDRATFRAKVPMATYEDLQPYIRRIADGDRSPILSGHPVSEFLTSSGTSGGERKLMPTIEDELNRRQLLYSLQMPVMNLYVPGMDKGKALHFLFVKSETKTPGGLAARPVLTSYYKSNHFRNRPFDAYNNYTSPTAAILCADAFQSMYAQMVCGLCQRQDVLRVGAVFASGLLRAIRFLQLNWEQLADDIEAGSLTPRVTDPSVREAVAGILRPDPAVAELVRSECSGGDWAGIVTRIWPNTKYLDVIVTGAMAQYIPTLKHYSGGLPMACTMYASSECYFGLNLRPMCDPSEVSYTLMPNMCYFEFLPMGGAVDASQLVDLARVERGREYELVITTYAGLNRYRVGDVLQVTGFHNSAPQFRFVRRKNVLLSIESDKTDEAELQRAVERASALLRPHGAAVVEYTSQAYTKSIPGHYVVYWELLQAKGGAAVDGETLEGCCLEMEEALNAVYRQSRVADGSIGPLEIRVVRPGTFEELMDYAISRGASINQYKVPRCVTFPPIIELLDSRVVSSHLSPALPHWTAGQRSDSD
modifications: Zea mays
Consider B4, for which, in data set [1], the “kcat (hrs−1) 2,4-D-Asp” value was determined as 2.892 h⁻¹ and the “kcat (hrs−1) 2,4-D-Glu” value came out at 0.355 h⁻¹. Also, in data set [2], the “kcat (hrs−1) IAA-Asp” value is 684.072 h⁻¹ and the “kcat (hrs−1) IAA-Glu” value stood at 26.467 h⁻¹.

B5: ZmACN32133: GH3 protein, accession ACN32133 (protein)
chain: MAPTTATAAAVGTKATALGVAACERDVEKLEFIEDKTRNFDAEQVRVLAEILARNNGAEYLRRHGMEGRTDRLAFKACVPVVTYEDLRPEIERIANGDRSNIISSHPITEFLTSSGTSAGERKLMPTIEDELNRRQMLYSLLMPVMNLYVPGLDKGKGLYFLFIKSETKTPGGLPARPVLTSYYKSDHFKHRPYDPYNVYTSPTAAILCTDSFQSMYSQMLCGLVARAEVLRVGAVFASGLLRAIRFLQLHWQELAHDLRTGTLSAKVTEPSIREAVAEVLRPDAGLADLVEAECGKESWEGIITRVWPNTKYLDVIVTGAMAQYIPTLKYYSGGLPMACTMYASSECYFGLNLRPMCDPSEVSYTIMPNMGYFELLPHDPDAVPPSRDDPPPRLLDLADAEVGRDYELVITTYAGLCRYRVGDILHVTGFHNAAPQFRFVRRKNVLLSVDSDKTDEAELQAAVERAARLLAPYDAAIAEYTSQADATTIPGHYVVYWELMVREGGASPDAAVFERCCLEMEEALNAVYRQGRNGDAIGPLEIRVVRGGTFEEVMDYAISRGASINQYKAPRCVSFGPIIELLNSRVVSSHFSPACPTYSPHKK
modifications: Zea mays
For B5, in data set [1], the “kcat (hrs−1) 2,4-D-Asp” value was determined as 0.602 h⁻¹ and the “kcat (hrs−1) 2,4-D-Glu” value came to 0.241 h⁻¹. Moreover, in data set [2], the “kcat (hrs−1) IAA-Asp” value was found to be 876.059 h⁻¹ and the “kcat (hrs−1) IAA-Glu” value was 83.547 h⁻¹.

B6: ZmACI46148: GH3 protein, accession ACI46148 (protein)
chain: MAVMAEVVSTTGAALRSPASQPLPAAVKNADAEKLQFIEEMTSNVDAVQERVLGEILARNAGTEYLAKYGLAAATTDRATFRAKVPMATYEDLQPYIRRIADGDRSPILSGHPVSEFLTSSGTSAGERKLMPTIEDELNRRQLLYSLQMPVMNLYVPGMDKGKALHFLFVKSETKTPGGLAARPVLTSYYKSNHFKNRPFDAYNNYTSPTAAILCADAFQSMYAQMLCGLCQRQDVLRVGAVFASGLLRAIRFLQLNWEQLAEDIEAGSLTPRVTDPSVREAVAGILRADPELAALVRSECSKGDWAGIITRIWPSTKYLDVIVTGAMAQYIPTLKYYSGGLPMACTMYASSECYFGLNLRPMCDPSEVSYTLMPNMCYFEFLPMDSAAASGGDASKLVDLARVEVGREYELVITTYAGLNRYRVGDVLQVTGFHNTAPQFRFVRRKNVLLSIESDKTDEAELQRAVERASALLRPHGAAVVEYTSQAYTKSIPGHYVIYWELLAKGPAGGAAVGEGTLERCCLEMEEALNTVYRQSRVADGSIGPLEIRVVRPGTFEELMDYAISRGASINQYKVPRCVTFPPIIELLDSRVVSSHFSPALPHWTPGQRSDSD
modifications: Zea mays
B6: in data set [1], the “kcat (hrs−1) 2,4-D-Asp” value came out at 2.278 h⁻¹ and the “kcat (hrs−1) 2,4-D-Glu” value came to 0.401 h⁻¹. Further, in data set [2], the “kcat (hrs−1) IAA-Asp” value stood at 869.016 h⁻¹ and the “kcat (hrs−1) IAA-Glu” value is 49.496 h⁻¹.

B7: SbEES19769: GH3 protein, accession EES19769 (protein)
chain: MPEAPVTTMREAATAAAAAAVPETHRELLEYIERVTAGAAQVQRRVLAEILAQNAPAEYLRRLGVAGDAPGAVDAFRRAAPLVTYEDILPDVLRIANGDTSPILSGKPIREFLTSSGTSGGERKLMPAIADEMDRRSLLYSLLMPVMSQAVPGLDKGKCMYLYFVKAESRTPGGHPARPVLTSFYRSRHFLERPHDPYTVYTSPDEAILCVDAYQSMYAQLLCGLVHRADVLRVGAVFASGFLRAIRFLEKHWQRLCRDIRTGTLDAEAVTDRAVRAAVEQRVLLRADPALADAVEAECARTSWQGIIRRVWPNTKYIDVIVTGAMAQYIPQLEFYGGGLPLTCTMYASSESYFGINLNPMCKPSEVAYTLIPTMCYFEFLPLPQPGDDDAGEPDQRDLVDLVDVKLGHEYELVVTTYSGLYRYRVGDVLRVAGFKNQAPMFNFLRRKNVVLSIDADKTDEAELHAAVSGAVQHLAPFGASLVEYTSYADAGTIPGHYVLFWELRLRAAAAAGATPTPVPASVFEDCCLAVEEALNSVYRQGRAADRSIGPLEIRVVSDGTFDKLMDYALARGASINQYKAPRCVRPGPVVELLDGRVQASYFSPKCPKWSPGVGKQWSSDAAAAAKKAAAGGSNGGGGGGGAVVVA
modifications: Sorghum bicolor
Consider B7, for which, in data set [1], the “kcat (hrs−1) 2,4-D-Asp” value was 18.287 h⁻¹ and the “kcat (hrs−1) 2,4-D-Glu” value amounted to 4.970 h⁻¹. In data set [2], the “kcat (hrs−1) IAA-Asp” value was found to be 903.124 h⁻¹ and the “kcat (hrs−1) IAA-Glu” value came out at 50.990 h⁻¹.
